Measured values: publication PMC7990499 (eLife, 2021)

Target: T1, fluorescently tagged eIF2Bβδγε tetramer (eIF2Bβδγε-F) (human, UniProt P49770 2-351; Q9UI10 1-523; Q9NR50 1-452; Q13144 1-721)
T1 construct: eIF2Bβ (eIF2B subunit beta), human; eIF2Bδ (eIF2B subunit delta), human; eIF2Bγ (eIF2B subunit gamma), human; eIF2Bε (eIF2B subunit epsilon), human; also called eIF2Bβγδε-F; tagged tetramers; source: E. coli, co-expression of pMS029 and pJT074, purified as previously described (Tsai et al., 2018); not shown: mNeonGreen with (GS)5 linker, C-terminal, kept; mScarlet-i with (GS)5 linker, C-terminal, …
T1 sequence (P49770 2-351, stated change not applied, chain 1 of 4): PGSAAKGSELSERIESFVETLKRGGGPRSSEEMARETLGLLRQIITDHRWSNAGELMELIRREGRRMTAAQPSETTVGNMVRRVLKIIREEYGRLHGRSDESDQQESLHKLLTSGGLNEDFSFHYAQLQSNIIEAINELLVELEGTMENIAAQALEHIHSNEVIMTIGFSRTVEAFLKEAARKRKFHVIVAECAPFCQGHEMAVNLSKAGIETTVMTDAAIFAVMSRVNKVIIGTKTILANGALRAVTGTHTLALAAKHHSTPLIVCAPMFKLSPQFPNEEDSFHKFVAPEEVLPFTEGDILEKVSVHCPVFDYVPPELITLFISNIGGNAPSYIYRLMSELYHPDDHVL
T1 sequence (Q9UI10 whole entry, stated change not applied, chain 2 of 4): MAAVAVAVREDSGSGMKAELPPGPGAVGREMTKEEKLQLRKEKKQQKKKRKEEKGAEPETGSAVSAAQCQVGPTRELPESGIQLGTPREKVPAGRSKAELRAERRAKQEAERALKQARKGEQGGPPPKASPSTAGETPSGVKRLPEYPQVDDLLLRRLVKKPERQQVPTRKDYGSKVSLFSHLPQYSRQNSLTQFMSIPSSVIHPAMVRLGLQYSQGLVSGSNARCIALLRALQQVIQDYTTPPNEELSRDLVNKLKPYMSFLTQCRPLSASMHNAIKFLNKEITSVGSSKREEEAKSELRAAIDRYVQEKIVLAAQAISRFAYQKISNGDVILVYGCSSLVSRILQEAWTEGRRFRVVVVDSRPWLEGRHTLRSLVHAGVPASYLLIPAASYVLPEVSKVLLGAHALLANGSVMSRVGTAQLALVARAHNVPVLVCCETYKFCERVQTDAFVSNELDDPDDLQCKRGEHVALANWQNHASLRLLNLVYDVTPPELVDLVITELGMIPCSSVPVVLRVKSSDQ
T1 sequence (Q9NR50 whole entry, stated change not applied, chain 3 of 4): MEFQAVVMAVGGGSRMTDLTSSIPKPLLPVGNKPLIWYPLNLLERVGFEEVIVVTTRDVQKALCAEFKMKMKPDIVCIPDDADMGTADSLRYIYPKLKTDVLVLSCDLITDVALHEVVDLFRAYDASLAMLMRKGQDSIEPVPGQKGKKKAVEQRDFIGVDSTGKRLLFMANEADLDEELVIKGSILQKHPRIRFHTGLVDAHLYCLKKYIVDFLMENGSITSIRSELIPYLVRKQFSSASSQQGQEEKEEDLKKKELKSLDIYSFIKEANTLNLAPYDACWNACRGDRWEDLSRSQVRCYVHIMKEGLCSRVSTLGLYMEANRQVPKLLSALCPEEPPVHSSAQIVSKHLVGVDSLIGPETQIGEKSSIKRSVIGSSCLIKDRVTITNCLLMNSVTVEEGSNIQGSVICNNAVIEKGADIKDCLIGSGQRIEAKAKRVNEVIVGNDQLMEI
T1 sequence (Q13144 whole entry, stated change not applied, chain 4 of 4): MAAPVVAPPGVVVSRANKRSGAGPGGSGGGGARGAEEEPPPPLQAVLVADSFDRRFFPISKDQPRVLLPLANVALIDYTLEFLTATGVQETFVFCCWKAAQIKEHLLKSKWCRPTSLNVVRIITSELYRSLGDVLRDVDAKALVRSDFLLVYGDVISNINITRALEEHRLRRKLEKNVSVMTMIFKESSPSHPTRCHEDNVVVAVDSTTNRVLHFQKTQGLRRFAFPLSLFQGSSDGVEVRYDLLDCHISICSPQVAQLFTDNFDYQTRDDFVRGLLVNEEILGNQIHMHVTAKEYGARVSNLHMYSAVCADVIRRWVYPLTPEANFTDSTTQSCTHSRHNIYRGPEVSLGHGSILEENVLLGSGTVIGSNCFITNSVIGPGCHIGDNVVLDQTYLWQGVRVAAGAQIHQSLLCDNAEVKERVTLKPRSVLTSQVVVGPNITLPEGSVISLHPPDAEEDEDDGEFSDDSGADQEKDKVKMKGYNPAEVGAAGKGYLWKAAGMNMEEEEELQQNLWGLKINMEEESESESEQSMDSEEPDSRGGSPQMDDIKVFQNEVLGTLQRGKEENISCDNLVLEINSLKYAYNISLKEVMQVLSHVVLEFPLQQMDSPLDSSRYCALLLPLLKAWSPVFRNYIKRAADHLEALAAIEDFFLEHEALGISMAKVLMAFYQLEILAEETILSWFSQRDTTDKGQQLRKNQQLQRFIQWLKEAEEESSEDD
Test: FRET or BRET; in vitro equilibrium FRET (E592/E516), 50 nM eIF2Bβδγε-F with a titration of eIF2Bα2, 1 hr, room temperature, 20 mM HEPES-KOH pH 7.5, 100 mM KCl, 5 mM MgCl2, 1 mM TCEP, 0.5% DMSO
Conditions: both partners purified

- EC50: 20 nM
B1: eIF2Bα homodimer (eIF2Bα2) (natural protein, human)
chain: MDDKELIEYFKSQMKEDPDMASAVAAIRTLLEFLKRDKGETIQGLRANLTSAIETLCGVDSSVAVSSGGELFLRFISLASLEYSDYSKCKKIMIERGELFLRRISLSRNKIADLCHTFIKDGATILTHAYSRVVLRVLEAAVAAKKRFSVYVTESQPDLSGKKMAKALCHLNVPVTVVLDAAVGYIMEKADLVIVGAEGVVENGGIINKIGTNQMAVCAKAQNKPFYVVAESFKFVRLFPLNQQDVPDKFKYKADTLKVAQTGQDLKEEHPWVDYTAPSLITLLFTDLGVLTPSAVSDELIKLYL
notes: eIF2Bα (eIF2B subunit alpha), human; also called eIFBα2; eIF2Bα homodimers; source: E. coli, expressed separately (pJT075 or pMS027), purified as previously described (Tsai et al., 2018)
